Source: patent US20130059773

Target: recombinant PCNA (human PCNA cDNA, produced in E. coli from plasmid PETPCNA, purified)

B1: procaspase-9 (protein)
chain: MDEADRRLLRRCRLRLVEELQVDQLWDALLSRELFRPHMIEDIQRAGSGSRRDQARQLIIDLETRGSQALPLFISCLEDTGQDMLASFLRTNRQAAKLSKPTLENLTPVVLRPEIRKPEVLRPETPRPVDIGSGGFGDVGALESLRGNADLAYILSMEPCGHCLIINNVNFCRESGLRTRTGSNIDCEKLRRRFSSLHFMVEVKGDLTAKKMVLALLELAQQDHGALDCCVVVILSHGCQASHLQFPGAVYGTDGCPVSVEKIVNIFNGTSCPSLGGKPKLFFIQACGGEQKDHGFEVASTSPEDESPGSNPEPDATPFQEGLRTFDQLDAISSLPTPSDIFVSYSTFPGFVSWRDPKSGSWYVETLDDIFEQWAHSEDLQSLLLRVANAVSVKGIYKQMPGCFNFLRKKLFFKTS
- procaspase-9 cleavage in an in vitro activation assay (neutrophil cytosol, cytochrome c, dATP; western blot of caspase-9): when purified PCNA was added to the mixture, procaspase-9 cleavage was delayed, with persistent procaspase-9 (47 kDa) and diminished 37-kDa fragment detection
